In patent US9926369B2, “Methods for treating hepatocellular cancer by administering an anti-Ang-2 antibody” (Regeneron Pharmaceuticals, Inc., priority 2009, dated 2018):
Numbering of substitutions follows the chain as printed.

B1: H2M750N: anti-Ang-2 antibody, HCVR/LCVR SEQ ID NOs 458/466 (antibody, V domains shown)
VH: QVKLVESGGGVVQPGRSLRVSCAASGFTFSSYGMHWVRQAPGKGLEWLAIIWYDGDNKYYSDSVKGRFTISRDNSKNTLYLQMNSLRAEDTAEYYCVRDASIASRFLDYWGQGTLVTVSS
VL: DIQMTQSPSSLSASIGDRVTITCRATQDINNYLAWFQQKPGKAPKSLIYATSNLQSGVPSKFSGSGSGTDYTLTISSLQPEDFSTYYCQQYHSYPLTFGGGTKVEIK
B2: H1H693P: anti-Ang-2 antibody, HCVR/LCVR SEQ ID NOs 90/92 (antibody, V domains shown)
VH: EVQLVESGGGLVQPGESLRLSCAASGFTFSSYAMSWVRQGPGKGLEWVSSISGSGGTTYYADSVEGRFTISRDNSKNTLYLHMNSLRAEDTAVYYCAKDFLDYSTYLAFDLWGQGTMVTVSS
VL: DIQMTQSPSSVSASVGDRVTITCRASQGISSWLAWYQQKPGKAPKLLIYAASSLQSGVPSRFSGSGSGTDFTLTISSLQPEDFATYYCQQANSFPRTFGQGTKVEIK
B3: H2M743N: anti-Ang-2 antibody, HCVR/LCVR SEQ ID NOs 410/418 (antibody, V domains shown)
VH: EVQLLESGGGLVQPGGSLRLSCAASGFTFRKYAMSWVRQAPGKGLEWVSVISVSGGNTYYADSVKGRFTISRDNSKNTLYLQLNSLRAEDTAVYYCAKDLTDIVLMVYVDYWGQGTLVTVSS
VL: B2 VL with G28D, S30D, S31R, S77T, F94L, R96F, Q100G
B4: H2M742N: anti-Ang-2 antibody, HCVR/LCVR SEQ ID NOs 386/394 (antibody, V domains shown)
VH: DVQLLESGGDLVQPGGSLRLSCEASGFTFRNYVMIWVRQAPGKGLEWVSGISNSGGTTHYTDSVKGRFTISRDNSKNTLYLQINSLRAEDTAVYYCAKGYLDTSLIEGNWFDPWGQGTLVTVSS
VL: NIVMTQSPLSLPVTPGEPASISCRSSQSLLHSNGFNYLNWFLQKPGQSPQLLIYLGSNRASGVPDKFSGSGSGTDFTLNINRVEAEDVGIYFCMQTLQTPLTFGGGTKVEIK
B5: H1M749N: anti-Ang-2 antibody, HCVR/LCVR SEQ ID NOs 314/322 (antibody, V domains shown)
VH: QVQLVESGGGVVQPGRSLRLSCAASGFTFSSYGMHWVRQAPGKGLEWVAVIWYDEFNKYYADSVKGRFTISRDNSKNTLYLQMNSLRAEDTAVYYCARERESGYSYGFDYWGQGTLVTVSS
VL: EIVMTQSPATLSVSPGERATLSCRAGQSVSSNLAWYQQKPGQAPRLLIYGASTRATGIPARFSGSGSGTEFTLTISSLQSEDFAVYYCQQYNNWWTFGQGTKVEIK
B6: H1H704P: anti-Ang-2 antibody, HCVR/LCVR SEQ ID NOs 186/188 (antibody, V domains shown)
VH: QVQLVESGGDVVQPGRSLRLSCAASGFTFSSYGMHWVRQAPGKGLEWVAIIWYDGSNKYYADSVKGRFTISRDNSKNTLYLQMNSLRVEDTAVYSCARDFSISSRHFDYWGQGTLVTVSS
VL: DIQMTQSPSSLSASVGDRVTITCRASQAINNYLAWFQQKPGKAPKSLIYATSNLQSGVPSQFSGSGSGTDYTLTISSLQPEDFATYYCQQYYIYPITFGQGTRLEIK
B7: H1M724N: anti-Ang-2 antibody, HCVR/LCVR SEQ ID NOs 266/274 (antibody, V domains shown)
VH: QVQLVESGGGVVQPGRSLRLSCAASGFTLSNYGMHWVRQAPGKGLEWVAVIWHDGSNTYYADSVKGRFTISRDNSKNTLYLQMNSLRAEDTAVYYCTREGLDFWSGYYPNWFDPWGQGTLVTVSS
VL: DIQMTQSPSSLSASVGDRVTITCRASQGIRNDLGWYQQKPGKAPKRLIYAASNLQGGVPSRFSGSGSGTEFTLTISSLQPEDFAAYYCLQHNIYPLTFGGGTKVEIK
B8: H1M732N: anti-Ang-2 antibody, HCVR/LCVR SEQ ID NOs 242/250 (antibody, V domains shown)
VH: EVQLVESGGGLVRPGGSLRLSCAASGFTFTNAWMSWVRQAPGKGLEWIGQIKSKTDGGTIDYAAPVKGRFTVSRDDSENTLFLQMNSLKTEDTAVYYCAGNWNYVDFDYWGQGTLVTVSS
VL: B7 VL with G28D, N53S, A85T, I93S, L96F, G100P, E105D

How the values were obtained:
[1] = system: Tie-2 phosphorylation (Ang-2-mediated) in HUVECs; test: Inhibition of Ang-2-mediated Tie-2 phosphorylation in FOXO1-adenovirus infected HUVECs; assay type: cell-based, human; conditions: antibody 0.5 μg/ml
Description: Further, the inventors have shown that infection of HUVECs with an adenovirus encoding FOXO1 results in expression and secretion of Ang-2, followed by activation of Tie-2 phosphorylation (Daly et al. 2006 PNAS 103:15491).
Anti-Ang-2 antibodies were tested for their ability to inhibit Tie-2 phosphorylation. Briefly, 7×10^5 HUVECs (Vec Technologies, Rensselaer, N.Y.) were plated in 6 cm cell culture dishes in 3.5 ml of MCDB131 Complete medium (Vec Technologies, Rensselaer, N.Y.). The following day, the cells were washed with Opti-MEM (Invitrogen Corp., Carlsbad, Calif.) and fed with 2 ml of Opti-MEM. […] Cells were then washed with MCDB131 and fed with 2 ml of MCDB131 containing anti-Ang-2 antibodies at a concentration of 0.5 μg/ml. At twenty hours post infection, cells were lysed and subjected to Tie-2 immunoprecipitation as described by Daly et al., Proc. Natl. Acad. Sci. USA 103:15491-15496 (2006). Immunoglobulin was collected on protein A/G beads (Santa Cruz Biotechnology, Santa Cruz, Calif.) for one hour. Beads were washed with cold lysis buffer and resuspended in SDS sample buffer for analysis by western blot with antibodies specific for phosphotyrosine (Millipore, Billerica, Mass.) or Tie-2. Signals were detected using HRP-conjugated secondary antibodies and ECL reagents (GE Healthcare, Piscataway, N.J.). X-Ray films were scanned and the phospho-Tie-2 and Tie-2 signals were quantified using ImageJ software. The phospho-Tie-2/Tie-2 ratios were used to determine the % inhibition for each anti-Ang-2 antibody (i.e. Percent inhibition=Reduction in phospho-Tie-2/Tie-2 as compared to control).

[2] = system: PC3 (Human Prostate Cancer Cell Line) tumors; test: PC3 mouse tumor model; assay type: in vivo, NCr nude mice; conditions: PC3, 2 mg/kg twice per week
Description: Briefly, 5×10^6 PC3 cells in 100 μl of growth factor-reduced Matrigel (BD Biosciences) were injected subcutaneously into the flanks of 6-8 week old male NCr nude mice (Taconic, Hudson, N.Y.). After tumor volumes reached an average of about 200 mm^3, mice were randomized into groups for treatment. […] Tumor volumes were measured twice per week over the course of the experiment and tumor weights were measured upon excision of tumors at the conclusion of the experiment. Averages (mean+/−standard deviation) of tumor weight and growth were calculated for each treatment group. Percent decrease of tumor weight and growth were calculated from comparison to Fc protein measurements.

[3] = system: COLO 205 (Human Colorectal Adenocarcinoma Cell Line) tumors; test: COLO 205 mouse tumor model; assay type: in vivo, mice; conditions: COLO 205, NCr nude mice, 4 mg/kg intraperitoneal twice per week; for Avg Tumor Weight: approximately two weeks
Description: Briefly, 2×10^6COLO 205 cells in 100 μl of serum-free medium were injected subcutaneously into the flank of 6-8 week old male NCr nude mice (Taconic, Hudson, N.Y.). After tumor volumes reached an average of about 150 mm^3, mice were randomized into groups for treatment with antibody or Fc protein. Mice in each treatment group were administered an anti-Ang-2 antibody or Fc protein at a concentration of 4 mg/kg via intraperitoneal injection twice per week for approximately two weeks. Tumor volumes were measured twice per week over the course of the experiment and tumor weights were measured upon excision of tumors at the conclusion of the experiment. Averages (mean+/−standard deviation) of tumor weight and growth were calculated for each treatment group. “Avg. Tumor Growth” represents the average growth from the time of treatment initiation (when tumors were approximately 150 mm^3). Percent decrease of tumor weight and growth are calculated from comparison to Fc protein measurements.
A similar experiment was carried out to assess the effect of H1H685P, in particular, on COLO 205 tumor growth. Briefly, 2×10^6 COLO 205 cells in 100 μl of serum-free medium were implanted subcutaneously into the right hind flank of 9-11 week-old male SCID CB17 mice. When the tumors reached ˜125 mm^3, mice were randomized into 5 groups (n=7-8 mice/group) and treated twice per week with Fc protein (15 mg/kg), H1H685P (5 or 25 mg/kg) or Control II (5 or 25 mg/kg) for a period of 19 days. Tumor volumes were measured twice per week over the course of the experiment and tumor weights were measured upon excision of tumors at the end of the experiment. Averages of tumor weight and growth from the beginning of treatment were calculated for each group. Percent decrease of tumor weight and growth are calculated from comparison to the Fc control group.
To determine the effect of combining an anti-Ang-2 antibody with a VEGF inhibitor on the growth of COLO 205 xenografts, 2×10^6 cells were implanted subcutaneously into the right hind flank of 6-8 week-old female SCID mice. When the tumors reached an average volume of ˜350 mm^3, mice were randomized into 4 groups (n=6 mice/group) and treated with: human Fc protein (7.5 mg/kg), H1H685P (5 mg/kg), VEGF Trap (see U.S. Pat. No. 7,087,411) (2.5 mg/kg) or the combination of H1H685P+VEGF Trap. Mice were given a total of 3 doses over 10 days of treatment. Tumor volumes were measured twice per week over the course of the experiment. Averages of tumor growth from the start of treatment (mean+/−standard deviation) were calculated for each treatment group. Percent decrease of tumor growth was calculated from comparison to the Fc control group.
To test the effect of H1H685P in combination with a chemotherapeutic agent on tumor growth, 2.5×10^6 COLO 205 tumor cells were implanted subcutaneously into the right hind flank of 8-9 week-old male SCID mice. When the tumors reached an average volume of ˜150 mm^3 (day 17 after implantation), mice were randomized into 4 groups (n=5 mice/group) and treated as follows: the first group was treated sc with 15 mg/kg hFc and intraperitoneally (ip) with 5-FU vehicle; the second group was treated sc with 15 mg/kg of H1H685P; the third group was treated ip with 75 mg/kg of 5-FU; the fourth group was treated with the combination of 15 mg/kg H1H685P sc plus 75 mg/kg 5-FU ip. Mice received a total of three treatments, administered every 3-4 days. Tumor volumes were measured twice per week over the course of the experiment. Average (mean+/−standard deviation) tumor growth from the beginning of treatment until day 38 was calculated for each group. Percent decrease of tumor growth was calculated from comparison to the control group.

Molecule | Inhibition of Tie-2 phosphorylation [1] | Inhibition of Tie-2 phosphorylation (in words) [1] | % Decrease in Tumor Growth [2] [%] | % Decrease in Tumor Weight [2] [%] | Avg Tumor Growth [2] [mm^3] | Avg Tumor Weight [2] [g] | % Decrease in Tumor Growth [3] [%] | % Decrease in Tumor Weight [3] [%] | Avg Tumor Growth [3] [mm^3] | Avg Tumor Weight [3] [g]
B1 | +++ (75-100%) | Especially robust inhibition | 52 | 37 | 227 ± 195 | 0.348 ± 0.128 |  |  |  | 
B2 | +++ (75-100%) | Especially robust inhibition |  |  |  |  |  |  |  | 
B3 | +++ (75-100%) |  | 50 | 41 | 179 ± 169 | 0.372 ± 0.122 |  |  |  | 
B4 | ++ (50-75%) |  |  | 35 | 220 ± 102 | 0.407 ± 0.076 | 42 | 32 | 427 ± 92 | 0.576 ± 0.057
B5 | ++ (50-75%) |  | 54 | 31 | 220 ± 261 | 0.383 ± 0.275 | 39 | 29 | 449 ± 169 | 0.603 ± 0.142
B6 | +++ (75-100%) | Especially robust inhibition |  |  |  |  |  |  |  | 
B7 | +++ (75-100%) | Especially robust inhibition |  |  |  |  | 54 | 37 | 336 ± 125 | 0.531 ± 0.103
B8 | ++ (50-75%) |  |  |  |  |  |  |  |  | 
